Data published in patent US20220348635A1, “COMPOSITIONS AND METHODS FOR NEUROLOGICAL DISEASES” (Coda Biotherapeutics, Inc., priority 2019, published 2022).

Key:
Type in all cases: cell-based
[1] = YFP quench plate reader assay, response to acetylcholine; details: LX293T YFP reporter cells
Text: (§1) FIGS. 1A-FIG. 1G show the heat maps of the percent quench of YFP fluorescence in the mutants of the engineered chimeric receptor SEQ ID NO:33 that comprise the indicated double amino acid substitutions following stimulation by various doses of either acetylcholine or the indicated non-native ligand. Ligand doses are written across the top of each chart. Numbers in the boxes indicate the absolute amount of quench observed. Dark blue=80% maximal quench of YFP reporter. Light blue=quench of 30-80%. White=10-30%. Orange=0-10% quench. Negative values represent non-responders that have a negative quench due to a stimulation artifact. SEQ ID NO:29 is a non-responding chimera used as a negative control. Abbreviations for non-native ligand names: abt: ABT-126; ach: acetylcholine; apn: APN-1125; azd: AZD-0328; brd: TC-5619; fac: RG3487; tc6: TC-6987.
(§2) Tables 2-8 below lists percent quench of YFP fluorescence following stimulation of the indicated engineered receptor by various doses of either acetylcholine or the non-native ligand.
(§3) To screen these mutant LGICs for those having novel response profiles to ligands, an anion reporter assay was developed to assess the function of channels in a high throughput format. In this assay, cells expressing a YFP reporter whose fluorescence is quenched in the presence of anion are transfected with DNA encoding the channel of interest. Upon exposure to ligand, channels that are activated will flux anion, resulting in a dose-dependent quench of the YFP that can be detected on a plate reader.
(§4) Lenti-X 293T cells (LX293T, Clontech) were maintained in DMEM containing 10% FBS and 1% penicillin/streptomycin (Invitrogen). […] Two days before assay, cells were split at a density of 20,000 cells/well in a 96-well tissue culture plate coated with poly-d lysine (Thermo Scientific). The next day, the cells were transiently transfected with 0.1 μg of DNA per well using standard Fugene protocol (Promega). On the day of assay, cells were washed 2 times in 1× extracellular solution (1×ECS: 140 mM NaCl, 5 mM KCl, 1 mM MgCl2, 2 mM CaCl2, 10 mM HEPES, 10 mM glucose, pH 7.2, mOsms 300). After the last wash, 100 μL of 1×ECS was added to the wells and the plate was incubated at 37° C. for 30 min. While incubating the plate, the drugs were diluted to a 2× concentration in 1×ECS-NaI (same components as 1×ECS except the 140 mM NaCl was replaced by 140 mM NaI). The plates were then read on a Flexstation3 (Molecular Devices). Each well, 8 wells at a time, of the plate is read for 2 min using a Flexstation3 (Molecular Devices) as follows: 1) a baseline YFP fluorescence is read for 17 sec, 2) 100 μL of ligand is added, and 3) the changes in YFP fluorescence are then measured every 1.3 sec for the remaining time.
(§5) FIG. 1 provides heat maps of the percent quench of YFP fluorescence following stimulation by various doses of either acetylcholine or the non-native ligand as indicated in the Figure. A positive fluorescence signal, as indicated by blue shaded cells, indicate that the engineered receptor is activated by the non-native ligand at that concentration. […] Table 12 lists the EC50 values for the indicated double mutants to acetylcholine (Ach) and TC-5619 as determined from the YFP fluorescence plate reader experiment.

[2] = YFP quench plate reader assay, response to AZD-0328; details: LX293T YFP reporter cells
Text: as §1, §2, §3, §4, §5

[3] = High throughput electrophysiology in HEK293T cells, AZD-0328; details: HEK293T cells, held at −60 mV
Protocol: To confirm the EC50s determined by plate reader as well as develop a better understanding of maximum current flow, the engineered receptors were subjected to high throughput electrophysiology system, as described below. For HEK293T studies, cDNAs encoding ion channels were cloned into pcDNA3.1 using standard recombination techniques. HEK293T cells from Clontech (Lenti-X™ 293T Cell Line) were cultured in DMEM supplemented with 10% FBS and 1% Pen/Strep to 40-50% confluence using standard cell culture protocols, transfected with ion channel plasmids at a concentration of 18 μg per 15 cm dish using Fugene 6, and grown for an additional 24 hours. Cells were then assayed on a electrophysiological system (IonFluxHT and/or Mercury, Fluxion Biosciences) in which dose-response relationships may be assessed through a microfluidics-based platform for establishing whole cell configurations. Ensemble plates were primed with extracellular buffer (140 mM NaCl, 5 mM KCl, 2 mM CaCl2), 1 mM MgCl2, 10 mM HEPES, and 10 mM glucose, pH 7.2 with NaOH, mOsm 310), intracellular buffer (145 mM CsCl, 2 mM CaCl2, 2 mM MgCl2, 10 mM HEPES, and 10 mM EGTA, pH 7.2 with CsOH, mOsm 305), as adapted from Lynagh and Lynch, and test compounds (stocks prepared fresh) diluted in extracellular buffer. Cells were then released from the plate with Accutase, centrifuged, resuspended in extracellular buffer, and loaded into Ensemble plates. Cells were then subjected to a standard protocol for priming, trapping, breaking, and establishing whole cell configuration, with cells held at −60 mV throughout the recording. After recording baseline, progressive doses of test compounds were applied using the IonFlux software to assess dose response relationships. Data were then analyzed off-line using custom Python scripts to convert data to .csv format, re-plot traces, and apply QC measurements to reject unstable recordings (i.e. thresholding based on access resistance and/or standard deviation in baseline, as well as artifact rejection). Peak currents were then calculated and population data were fit using a 4-parameter logistic equation as described by the Hill Equation. Currents were measured on an automated patch clamp system (Fluxion Biosciences) following 1 second addition of drug and the EC50 values calculated are tabulated below in Table 13.

[4] = YFP quench plate reader assay, response to ABT-126; details: LX293T YFP reporter cells
Text: as §1, §2, §3, §4, §5

[5] = YFP quench plate reader assay, response to APN-1125; details: LX293T YFP reporter cells
Text: as §1, §2, §3, §4, §5

[6] = YFP quench plate reader assay, response to TC-5619; details: LX293T YFP reporter cells
Text: as §1, §2, §3, §4, §5

[7] = YFP quench plate reader assay, response to TC-6987; details: LX293T YFP reporter cells
Text: as §1, §2, §3, §4, §5

[8] = YFP quench plate reader assay, response to RG3487; details: LX293T YFP reporter cells
Text: as §1, §2, §3, §4, §5

B1: Y115D, L131E in SEQ ID NO: 33: engineered chimeric α7-nAChR/GlyRα1 LGIC receptor: SEQ ID NO: 33 with substitutions Y115D and L131E (protein)
chain: MRCSPGGVWLALAASLLHVSLQGEFQRKLYKELVKNYNPLERPVANDSQPLTVYFSLSLLQIMDVDEKNQVLTTNIWLQMSWTDHYLQWNVSEYPGVKTVRFPDGQIWKPDILLDNSADERFDATFHTNVEVNSSGHCQYLPPGIFKSSCPMDLKNFPMDVQTCKLKFGSWSYGGWSLDLQMQEADISGYIPNGEWDLVGIPGKRSERFYECCKEPYPDVTFTVTMRRRMGYYLIQMYIPSLLIVILSWISFWINMDAAPARVGLGITTVLTMTTQSSGSRASLPKVSYVKAIDIWMAVCLLFVFSALLEYAAVNFVSRQHKELLRFRRKRRHHKSPMLNLFQEDEAGEGRFNFSAYGMGPACLQAKDGISVKGANNSNTTNPPPAPSKSPEEMRKLFIQRAKKIDKISRIGFPMAFLIFNMFYWIIYKIVRREDVHNQ
modifications: synthetic sequence of chimeric LGIC
percent quench of YFP fluorescence, 10 uM ach ([1]; 10 uM acetylcholine): 15.45% | percent quench of YFP fluorescence, 100 uM ach ([1]; 100 uM acetylcholine): 13.77% | percent quench of YFP fluorescence, 1 mM ach ([1]; 1 mM acetylcholine): 27.42% | percent quench of YFP fluorescence, 3 mM ach ([1]; 3 mM acetylcholine): 53.62% | percent quench of YFP fluorescence, 100 nM azd ([2]; 100 nM AZD-0328): 24.49% | percent quench of YFP fluorescence, 300 nM azd ([2]; 300 nM AZD-0328): 45.34% | percent quench of YFP fluorescence, 30 uM azd ([2]; 30 uM AZD-0328): 71.21% | EC50 AZD-0328 [3]: no activity | percent quench of YFP fluorescence, 50 nM abt ([4]; 50 nM ABT-126): −1.68% | percent quench of YFP fluorescence, 100 nM abt ([4]; 100 nM ABT-126): −2.25% | percent quench of YFP fluorescence, 300 nM abt ([4]; 300 nM ABT-126): −2.37% | percent quench of YFP fluorescence, 1 uM abt ([4]; 1 uM ABT-126): 3.68% | percent quench of YFP fluorescence, 100 nM apn ([5]; 100 nM APN-1125): −5.71% | percent quench of YFP fluorescence, 1 uM apn ([5]; 1 uM APN-1125): 13.03% | percent quench of YFP fluorescence, 30 uM apn ([5]; 30 uM APN-1125): 25.2% | percent quench of YFP fluorescence, 1 nM brd ([6]; 1 nM TC-5619): −1.52% | percent quench of YFP fluorescence, 3 nM brd ([6]; 3 nM TC-5619): −5.35% | percent quench of YFP fluorescence, 10 nM brd ([6]; 10 nM TC-5619): −3.49% | percent quench of YFP fluorescence, 30 nM brd ([6]; 30 nM TC-5619): 2.16% | percent quench of YFP fluorescence, 100 nM brd ([6]; 100 nM TC-5619): 4.18% | percent quench of YFP fluorescence, 300 nM brd ([6]; 300 nM TC-5619): 70.2% | percent quench of YFP fluorescence, 1 uM brd ([6]; 1 uM TC-5619): 43.11% | percent quench of YFP fluorescence, 1 uM tc6 ([7]; 1 uM TC-6987): 36.07% | percent quench of YFP fluorescence, 10 uM tc6 ([7]; 10 uM TC-6987): 31.35% | percent quench of YFP fluorescence, 500 uM tc6 ([7]; 500 uM TC-6987): 28.18% | percent quench of YFP fluorescence, 30 nM fac ([8]; 30 nM RG3487): 45.76% | percent quench of YFP fluorescence, 100 nM fac ([8]; 100 nM RG3487): 63.92% | percent quench of YFP fluorescence, 300 nM fac ([8]; 300 nM RG3487): 79.43% | percent quench of YFP fluorescence, 10 uM fac ([8]; 10 uM RG3487): 80.1% | percent quench of YFP fluorescence, 30 uM fac ([8]; 30 uM RG3487): 84.91%
